Results on three molecules are retold here after patent US20230025525A1 (HELMHOLTZ ZENTRUM M NCHEN DEUTSCHES FORSCHUNGSZENTRUM F R …, published 2023).

Positions count from the first letter of the chain named.

T1: human IGFR-like receptor (UPF0577 protein KIAA1324) (human, UniProt Q6UXG2 42-1013)
T1 construct: Endogenous protein in lysates of human MCF7 cells and human islet cells, seen as a band of ~130 kDa on Western blot; also called IGFR-I; IGF3R
T1 sequence: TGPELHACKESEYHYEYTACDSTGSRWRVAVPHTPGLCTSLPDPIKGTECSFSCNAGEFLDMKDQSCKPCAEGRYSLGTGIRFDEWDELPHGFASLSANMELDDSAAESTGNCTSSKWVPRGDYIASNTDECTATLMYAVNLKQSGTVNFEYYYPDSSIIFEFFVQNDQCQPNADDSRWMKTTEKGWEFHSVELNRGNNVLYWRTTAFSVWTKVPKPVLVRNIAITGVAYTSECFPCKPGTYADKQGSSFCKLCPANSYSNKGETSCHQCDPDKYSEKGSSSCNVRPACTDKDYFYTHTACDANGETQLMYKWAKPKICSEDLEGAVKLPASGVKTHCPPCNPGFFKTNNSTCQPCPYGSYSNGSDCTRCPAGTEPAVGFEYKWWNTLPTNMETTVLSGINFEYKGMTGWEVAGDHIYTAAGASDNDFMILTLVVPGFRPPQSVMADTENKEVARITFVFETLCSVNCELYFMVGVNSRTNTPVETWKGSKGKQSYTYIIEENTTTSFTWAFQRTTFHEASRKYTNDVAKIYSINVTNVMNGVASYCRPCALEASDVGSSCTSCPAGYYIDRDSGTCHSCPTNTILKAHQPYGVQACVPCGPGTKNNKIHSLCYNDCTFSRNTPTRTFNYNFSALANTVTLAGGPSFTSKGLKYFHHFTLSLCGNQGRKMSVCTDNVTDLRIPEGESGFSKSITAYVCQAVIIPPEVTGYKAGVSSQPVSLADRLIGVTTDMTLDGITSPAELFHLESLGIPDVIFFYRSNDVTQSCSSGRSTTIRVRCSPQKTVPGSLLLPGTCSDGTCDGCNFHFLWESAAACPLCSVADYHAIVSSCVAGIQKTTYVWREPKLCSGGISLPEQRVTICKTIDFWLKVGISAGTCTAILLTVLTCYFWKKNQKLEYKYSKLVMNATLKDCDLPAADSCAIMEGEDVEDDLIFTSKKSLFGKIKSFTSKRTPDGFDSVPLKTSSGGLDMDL

B1: EIG-B 18B2 (antibody, V domains shown)
VH: QVQLKESGPGLVQPSQTLSLTCTVSGFSLTSYHISWVRQPPGKGLEWIAAISSGGDTYYNSLLKSRLSISRDTSKSQVFLKMNRLQTEDTAFYFCNGESYWGQGTLVTVSS
VL: DVVLTQSPATLSVTPGERISLSCRASENIDTYLHWFQQKPNESPRLLIKFASQSISGIPSRFSGSGSGRDFTLSINGVELEDLSIYYCQQGNILPYTFGAGTRLELKR
notes: Rat monoclonal antibody from a hybridoma; Only the variable regions are tied to the clone by name; also called EIG-B 1862
B2: EIG-B 10D9 (antibody, V domains shown)
VH: B1 VH
VL: B1 VL with R69T, R103K
notes: Rat monoclonal antibody from a hybridoma; Only the variable regions are tied to the clone by name; The constant regions are not tied to the clone
B3: EIG-D 26D7 (antibody, V domains shown)
VH: QVQLQQPGADLVRPGSSVKLSCKASGYSFTSYWMDWVKQRPGQGLEWIGNIYPSDGETHYNQKFKDKATLTVDKSSSTAYMQLSSLTSEDSAVYYCARLYSEYGSWGQGTTLTVSS
VL: DIVMTQSPSSLTVTTGEKVTMSCKSSQSLLNSGNQKNYLTWYQQRPGQPPKLLIYWASTRDSGVPDRFTGSGSGTDFTLTISSVQAADLAVYYCQNDYSYPLTFGAGTKLELKR
notes: Mouse monoclonal antibody from a hybridoma; Only the variable regions are tied to the clone by name; The constant regions are not tied to the clone

In the assay the target is T1, human IGFR-like receptor (UPF0577 …). As to the kind of experiment: Western blot, MCF7 cell lysate (strong). The source says: FIG. 29: Detection of IGFR-like receptor in mouse Min6 insulinoma cells and human MCF7 breast cancer cells using antibody against the extracellular domain of IGFR-like receptor. Western blotting experiments show specific recognition of a protein band of ˜130 kDa in Min6 (weak) and MCF7 (strong) cell lysates by an antibody against the extracellular domain SEQ ID NO: 4 (EIG-B 1862: VHC: SEQ ID NO:31, VLC: SEQ ID NO:32; and 10D9: VHC: SEQ ID NO:33, VLC: SEQ ID NO:34) and SEQ ID NO: 6 (EIG-D 26D7: VHC: SEQ ID NO:35, VLC: SEQ ID NO:36). The EIG-B clones are monoclonal antibodies generated against the peptide SEQ ID NO: 4 in rat, whereas the EIG-D clone is a monoclonal antibody generated against the SEQ ID NO: 6 in mouse.
Cells and tissues were lysed in RIPA buffer (50 mM Tris pH7.5, 150 mM NaCl, 1 mM EDTA, 1% IGEPAL, 0.1% SDS, 0.1% Na deoxycholate) containing a cocktail of proteinase inhibitor (1:100, Sigma, P8340) and phosphatases inhibitors (1:100, Sigma Aldrich, #2 P0044 and #3 P5726) and the cell or tissue lysates were cleared by centrifugation at 13000 r.p.m. for 10-30 min. The proteins (10-20 μg) were resolved in 6.5-15% SDS-PAGE according to the protein size to be detected and transferred to a PVDF membrane. Primary antibodies were added to the membrane in 5% milk and incubated at 4° C. overnight. Protein bands were visualized on Hyperfilms™ (GE healthcare, 28906837) or Blaufilme™ CEA-RP (Ernst Christiansen GmbH, EC84A) by chemiluminescent detection (ECL, Millipore, WBKLS0500).
Consider B1, for which the binding result is “binds”. Consider B2, for which the binding result was “binds”. In the case of B3, the binding result is “binds”.
